Measured values from publication PMC8939767 (Science Translational Medicine, 2022).
Where no end group is shown, it is not given here. The star is where a group is joined. Biotin = O=C1N[C@H]2[C@H](CS[C@H]2CCCCC(=O)*)N1

Legend:
[1] = target: T1, HCoV-HKU1 stem peptide variant, 20-mer with 5 additional residues at the N-terminus (HCoV-HKU1 isolate N1 (AAT98580.1), UniProt Q5MQD0, biotin on the N-terminus); test: BLI; conditions: both partners purified
T1 construct: also called 20-mer (brick red); source: synthetic peptide
T1 chain: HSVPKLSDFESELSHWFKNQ

[2] = target: T2, HCoV-HKU1 stem peptide variant, 20-mer with 5 additional residues at the C-terminus (HCoV-HKU1 isolate N1 (AAT98580.1), UniProt Q5MQD0, biotin on the N-terminus); test: BLI; conditions: both partners purified
T2 construct: also called 20-mer (orange); source: synthetic peptide
T2 chain: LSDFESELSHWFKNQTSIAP

[3] = target: T3, HCoV-HKU1 25-residue S2 stem peptide (residues 1226-1250) (HCoV-HKU1 isolate N1 (AAT98580.1), UniProt Q5MQD0, biotin on the N-terminus); test: BLI; conditions: both partners purified
T3 construct: also called 25-mer (red); 25-mer S2 peptide from HCoV-HKU1; source: synthetic peptide
T3 chain: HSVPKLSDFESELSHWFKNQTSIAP

[4] = target: T4, HCoV-HKU1 soluble spike ectodomain protein (HCoV-HKU1, isolate N1 by the GenBank …, UniProt Q5MQD0); test: BLI; conditions: both partners purified
T4 construct: also called HCoV-HKU1 soluble spike protein; source: FreeStyle293-F, transfected, purified (Ni-NTA, SEC)

[5] = target: T5, HCoV-HKU1 spike protein, full length, expressed on 293T cells (HCoV-HKU1, isolate N1 by the GenBank …, UniProt Q5MQD0); test: flow cytometry on cells; conditions: one partner purified
T5 construct: source: HEK293T, transfected, on the cell surface

[6] = target: T6, HCoV-HKU1 S2 95th 15-mer stem peptide (residues 1231-1245), biotinylated (HCoV-HKU1 isolate N1 (AAT98580.1), UniProt Q5MQD0); test: ELISA; […], mAb in 1% BSA/PBST, […]; conditions: both partners purified
T6 construct: also called 95th 15-mer peptide; HCoV-HKU1 95th 15-mer stem peptide; source: synthetic peptide (A&A Labs, Synthetic Biomolecules)
T6 chain: Biotin-LSDFESELSHWFKNQ

[7] = target: T7, SARS-CoV-2 S2 stem-helix 25-mer peptide, N-terminal biotinylated (wild type) (SARS-CoV-2, UniProt P0DTC2, biotin on the N-terminus); test: BLI; […], Octet buffer (PBS plus 0.1% Tween-20), association 120 s, […]; conditions: both partners purified
T7 construct: also called SARS-CoV-2 stem-helix peptide; SARS-CoV-2 stem peptide (25mer); source: synthetic peptide
T7 chain: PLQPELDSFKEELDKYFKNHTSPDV

[8] = target: T8, SARS-CoV-2 25-mer S2 stem peptide (as used for the crystal and for competition of neutralization) (SARS-CoV-2, UniProt P0DTC2); test: crystal structure; conditions: both partners purified
T8 construct: also called SARS-CoV-2 S2 peptide; SARS-CoV-2 stem peptide; source: synthetic peptide
T8 chain: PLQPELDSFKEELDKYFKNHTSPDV

Measured: binding result

T5 sequence (Q5MQD0 13-1356): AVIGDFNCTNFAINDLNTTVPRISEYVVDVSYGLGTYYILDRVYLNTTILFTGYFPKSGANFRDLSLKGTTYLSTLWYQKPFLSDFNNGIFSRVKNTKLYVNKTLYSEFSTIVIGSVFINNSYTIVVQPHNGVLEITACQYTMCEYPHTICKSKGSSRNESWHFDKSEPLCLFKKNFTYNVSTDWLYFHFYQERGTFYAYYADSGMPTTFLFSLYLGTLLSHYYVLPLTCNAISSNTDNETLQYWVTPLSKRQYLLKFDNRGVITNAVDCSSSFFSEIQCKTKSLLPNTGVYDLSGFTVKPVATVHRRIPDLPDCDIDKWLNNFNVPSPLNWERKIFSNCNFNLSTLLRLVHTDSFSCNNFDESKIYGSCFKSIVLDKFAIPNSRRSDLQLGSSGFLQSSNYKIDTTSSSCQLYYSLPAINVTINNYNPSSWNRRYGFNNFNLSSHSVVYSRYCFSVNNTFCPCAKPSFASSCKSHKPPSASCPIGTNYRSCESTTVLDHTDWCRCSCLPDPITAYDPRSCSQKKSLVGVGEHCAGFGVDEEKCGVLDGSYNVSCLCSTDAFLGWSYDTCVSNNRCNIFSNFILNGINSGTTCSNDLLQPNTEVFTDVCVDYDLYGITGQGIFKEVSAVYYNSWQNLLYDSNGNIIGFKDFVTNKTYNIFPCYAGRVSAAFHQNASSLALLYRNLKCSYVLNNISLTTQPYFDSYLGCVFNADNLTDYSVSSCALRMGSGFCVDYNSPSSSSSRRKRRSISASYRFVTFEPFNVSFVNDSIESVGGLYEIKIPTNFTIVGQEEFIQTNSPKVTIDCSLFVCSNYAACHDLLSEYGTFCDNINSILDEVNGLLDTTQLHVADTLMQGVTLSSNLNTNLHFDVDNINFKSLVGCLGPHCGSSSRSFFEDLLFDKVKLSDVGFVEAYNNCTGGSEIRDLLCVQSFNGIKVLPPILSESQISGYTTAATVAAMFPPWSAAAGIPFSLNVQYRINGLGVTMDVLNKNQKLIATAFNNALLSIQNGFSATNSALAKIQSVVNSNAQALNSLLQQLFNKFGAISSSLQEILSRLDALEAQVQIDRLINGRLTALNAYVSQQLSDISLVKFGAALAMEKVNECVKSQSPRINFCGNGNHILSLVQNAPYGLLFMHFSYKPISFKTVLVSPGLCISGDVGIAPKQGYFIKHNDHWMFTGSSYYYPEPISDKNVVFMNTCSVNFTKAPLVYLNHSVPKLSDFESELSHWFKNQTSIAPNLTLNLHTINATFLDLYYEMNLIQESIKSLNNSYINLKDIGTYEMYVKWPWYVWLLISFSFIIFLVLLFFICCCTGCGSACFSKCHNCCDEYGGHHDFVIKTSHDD

B1: CC40.8 broadly neutralizing antibody (IgG) (antibody, V domains shown)
VH: EVQLLESGGGLVQPGGSLRLSCAASGFTFSSYVMTWARQAPGKGLEWVSAISGTGYTYYADSVKGRFTVSRDNSKNTLFLQMSSLRAEDTAVYYCAITMAPVVWGQGTTVTVSS
VL: SYELTQPPSVSVSPGQTARITCSGDALPKRYAYWYQQKSGQAPILVIYEDKKRPSGIPERLSGSKSGTVATLTISGAQVEDEADYYCYSTDSSGNHAVFGGGTQLTVL
notes: also called CC40.8 bnAb; CC40.8 mAb
not listed: [8]
binds: all other assays above

B2: CC40.8 Fab (Fab, V domains shown)
VH: EVQLLESGGGLVQPGGSLRLSCAASGFTFSSYVMTWARQAPGKGLEWVSAISGTGYTYYADSVKGRFTVSRDNSKNTLFLQMSSLRAEDTAVYYCAITMAPVVWGQGTTVTVSS
VL: SYELTQPPSVSVSPGQTARITCSGDALPKRYAYWYQQKSGQAPILVIYEDKKRPSGIPERLSGSKSGTVATLTISGAQVEDEADYYCYSTDSSGNHAVFGGGTQLTVL
notes: also called CC40.8 antibody Fab fragment
binds: [8]
